Consider two molecules from PMC5339710, “Single-molecule studies reveal reciprocating of WRN helicase core along ssDNA during DNA unwinding”.

Data set [1] addresses T1, WRN helicase core (WRN512-1213) (Gallus gallus, UniProt D3KR65 512-1213).
T1 sequence: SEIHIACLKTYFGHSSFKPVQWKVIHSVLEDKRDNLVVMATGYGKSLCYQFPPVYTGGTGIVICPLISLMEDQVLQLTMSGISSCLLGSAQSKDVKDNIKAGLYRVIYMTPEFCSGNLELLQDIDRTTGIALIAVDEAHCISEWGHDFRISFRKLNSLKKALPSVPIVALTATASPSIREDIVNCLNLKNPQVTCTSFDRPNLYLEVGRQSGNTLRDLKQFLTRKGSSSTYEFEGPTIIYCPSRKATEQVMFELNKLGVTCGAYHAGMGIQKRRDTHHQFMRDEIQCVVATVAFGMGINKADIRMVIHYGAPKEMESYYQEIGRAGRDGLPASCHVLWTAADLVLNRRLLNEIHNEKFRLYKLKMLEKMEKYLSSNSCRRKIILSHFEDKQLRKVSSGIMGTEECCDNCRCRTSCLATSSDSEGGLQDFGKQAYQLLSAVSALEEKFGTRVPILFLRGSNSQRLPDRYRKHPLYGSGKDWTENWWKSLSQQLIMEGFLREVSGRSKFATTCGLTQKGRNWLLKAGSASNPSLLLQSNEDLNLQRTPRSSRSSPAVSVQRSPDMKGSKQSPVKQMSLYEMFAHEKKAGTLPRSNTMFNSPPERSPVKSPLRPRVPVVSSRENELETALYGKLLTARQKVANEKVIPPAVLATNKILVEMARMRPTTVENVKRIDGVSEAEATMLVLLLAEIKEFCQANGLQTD
Kind of data set: fluorescence polarization anisotropy; 0.2 mM ADP; 5 mM Mg2+; Hill coefficient 1; 20 mM Tris-HCl pH 8.0, 50 mM KCl, 5 mM MgCl2, 5 nM DNA, 25 C, 5 min equilibration. The following applies: protein: recombinant; tags: 6xHis-SUMO at N-terminus, cleaved with Ulp; label: fluorescein (FAM), position by colour only; single strand.

The target in data set [2] is T1, WRN helicase core (WRN512-1213). Kind of data set: fluorescence polarization anisotropy; 0.2 mM ATPgS; 5 mM Mg2+; Hill coefficient 1; 20 mM Tris-HCl pH 8.0, 50 mM KCl, 5 mM MgCl2, 5 nM DNA, 25 C, 5 min equilibration. The following applies: protein: recombinant; tags: 6xHis-SUMO at N-terminus, cleaved with Ulp; label: fluorescein (FAM), position by colour only; single strand. On the technique in general: Fluorescence polarisation rises when a labelled molecule tumbles more slowly, as on binding a larger partner.

The target is the same in data set [3]. Kind of data set: fluorescence polarization anisotropy; 5 mM Mg2+; no nucleotide stated; Hill coefficient 2; 20 mM Tris-HCl pH 8.0, 50 mM KCl, 5 mM MgCl2, 5 nM DNA, 25 C, 5 min equilibration. The following applies: protein: recombinant; tags: 6xHis-SUMO at N-terminus, cleaved with Ulp; label: fluorescein (FAM), position by colour only; blunt.

A word on the Kd: it is a measure of binding affinity in units of concentration. Turning to CTCTGCTCGACGGATT (ssDNA) [16nt-FAM], the values for the dissociation constant (Kd) in data set [1] and in data set [2] were 141 ± 10.5 nM and 76.6 ± 4.2 nM, respectively.

B1: 16bp-FAM (dsDNA)
DNA 1: CTCTGCTCGACGGATT
DNA 2: AATCCGTCGAGCAGAG
As for B1, the Kd in data set [3] is 32.2 ± 2.8 nM.
